The values that follow come from paper PMC8010718, “Direct coupling of oligomerization and oligomerization-driven endocytosis of the dopamine transporter to its conformational mechanics and activity” (The Journal of Biological Chemistry, 2021).

To fix the notation:
B1: YFP- and HA-epitope tagged dopamine transporter (YFP-HA-DAT), wild type [human] / itself (parent)
chain: MSKSKCSVGLMSSVVAPAKEPNAVGPKEVELILVKEQNGVQLTSSTLTNPRQSPVEAQDRETWGKKIDFLLSVIGFAVDLANVWRFPYLCYKNGGGAFLVPYLLFMVIAGMPLFYMELALGQFNREGAAGVWKICPILKGVGFTVILISLYVGFFYNVIIAWALHYLFSSFTTELPWIHCNNSWNSPNCSDAHPGDSSGDSSGLNDTFGTTPAAEYFERGVLHLHQSHGIDDLGPPRWQLTACLVLVIVLLYFSLWKGVKTSGKVVWITATMPYVVLTALLLRGVTLPGAIDGIRAYLSVDFYRLCEASVWIDAATQVCFSLGVGFGVLIAFSSYNKFTNNCYRDAIVTTSINSLTSFSSGFVVFSFLGYMAQKHSVPIGDVAKDGPGLIFIIYPEAIATLPLSSAWAVVFFIMLLTLGIDSAMGGMESVITGLIDEFQLLHRHRELFTLFIVLATFLLSLFCVTNGGIYVFTLLDHFAAGTSILFGVLIEAIGVAWFYGVGQFSDDIQQMTGQRPSLYWRLCWKLVSPCFLLFVVVVSIVTFRPPHYGAYIFPDWANALGWVIATSSMAMVPIYAAYKFCSLPGSFREKLAYAIAPEKDRELVDRGEVRQFTLRHWLKV

In the first assay the parent is B1. Briefly: SDS-PAGE and immunoblotting with the GFP antibody, quantification of trimer band. The conditions noted are these: AIM-100 20 μM, 2 h at 37 °C, PAE cells, read off a plot. For orientation: A western blot detects proteins with antibodies after separation by electrophoresis.
Regarding chain 1 I248F V249T L458F L459G, the screen value (fraction of total) was 0.3.

The assay is the same for the next values; noted with them: AL3 20 μM, 2 h at 37 °C, PAE cells, read off a plot.
For chain 1 I248F V249T L458F L459G, the screen value (fraction of total) turned out to be 0.15.

Staying with this assay, now noted: AL4 20 μM, 2 h at 37 °C, PAE cells, read off a plot.
As for chain 1 I248F V249T L458F L459G, the screen value (fraction of total) turned out to be 0.17.

Staying with this assay, now noted: AL8 20 μM, 2 h at 37 °C, PAE cells, read off a plot.
chain 1 I248F V249T L458F L459G: the screen value (fraction of total) was 0.22.

The assay is the same for the next values; noted with them: vehicle, 2 h at 37 °C, PAE cells, read off a plot.
Consider chain 1 I248F V249T L458F L459G, for which the screen value (fraction of total) turned out to be 0.17.
